Assay results: patent EP4538286A1 (Adlai Nortye Biopharma Co., Ltd., dated 2025)

T1: human CTLA4 protein (human, UniProt P16410 37-162, limits assumed)
T1 construct: bought protein coated on the ELISA plate; also called human CTLA4 antigen
T1 sequence (looked up): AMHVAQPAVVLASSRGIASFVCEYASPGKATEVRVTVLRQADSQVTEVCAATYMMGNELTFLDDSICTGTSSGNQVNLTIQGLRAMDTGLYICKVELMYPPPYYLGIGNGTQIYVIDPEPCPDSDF


Legend:
human CTLA4 protein = target: T1, human CTLA4 protein; assay: ELISA, plate-coated human CTLA4
human CD28 protein = target: T2, human CD28 protein (human, UniProt P10747 19-152); assay: ELISA, plate-coated human CD28
T2 construct: bought protein coated on the ELISA plate; also called human CD28 antigen
T2 sequence (P10747 19-152 limits assumed): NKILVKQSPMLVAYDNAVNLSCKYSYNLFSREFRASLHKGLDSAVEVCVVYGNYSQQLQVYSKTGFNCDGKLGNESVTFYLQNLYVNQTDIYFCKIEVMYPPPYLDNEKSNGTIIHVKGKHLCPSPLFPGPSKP

| Binder | binding result (human CTLA4 protein) | binding result (human CD28 protein) |
| --- | --- | --- |
| Abs-254 (other, the paragraph that names the antibody is followed; also called CD80 IgV mutant I69W/A71E-sugemalimab fusion) heavy: VIHVTKEVKEVATLSCGHNVSVEELAQTRIYWQKEKKMVLTMMSGDMNIWPEYKNRTIFDITNNLSIVWLELRPSDEGTYECVVLKYEKDAFKREHLAEVTLSVKADGGGGSGGGGSGGGGSGGGGSGEVQLLESGGGLVQPGGSLRLSCAASGFTFSSYAMSWVRQAPGKGLEWVSGISGSGGFTYYADSVKGRFTISRDNSKNTLYLQMNSLRAEDTAVYYCAKPPRGYNYGPFDYWGQGTLVTVSSASTKGPSVFPLAPCSRSTSESTAALGCLVKDYFPEPVTVSWNSGALTSGVHTFPAVLQSSGLYSLSSVVTVPSSSLGTKTYTCNVDHKPSNTKVDKRVESKYGPPCPPCPAPEFLGGPSVFLFPPKPKDTLMISRTPEVTCVVVDVSQEDPEVQFNWYVDGVEVHNAKTKPREEQFNSTYRVVSVLAVLHQDWLNGKEYKCKVSNKGLPSSIEKTISKAKGQPREPQVYTLPPSQEEMTKNQVSLTCLVKGFYPSDIAVAWESNGQPENNYKTTPPVLDSDGSFFLYSRLTVDKSRWQEGNVFSCSVMHEALHAHYTQKSLSLSLGK light: SYVLTQPPSVSVAPGQTARITCGGNNIGSKSVHWYQQKPGQAPVLVVYDDSDRPSGIPERFSGSNSGNTATLTISRVEAGDEADYYCQVWDSSSDHVVFGGGTKLTVLGQPKAAPSVTLFPPSSEELQANKATLVCLISDFYPGAVTVAWKADSSPVKAGVETTTPSKQSNNKYAASSYLSLTPEQWKSHRSYSCQVTHEGSTVEKTVAPTECS | no binding | no binding |
| Abs-255 (other, the paragraph that names the antibody is followed; also called CD80 IgV mutant H18W/A26M/A71E/L85N-sugemalimab fusion) heavy: VIHVTKEVKEVATLSCGWNVSVEELMQTRIYWQKEKKMVLTMMSGDMNIWPEYKNRTIFDITNNLSIVILELRPSDEGTYECVVNKYEKDAFKREHLAEVTLSVKADGGGGSGGGGSGGGGSGGGGSGEVQLLESGGGLVQPGGSLRLSCAASGFTFSSYAMSWVRQAPGKGLEWVSGISGSGGFTYYADSVKGRFTISRDNSKNTLYLQMNSLRAEDTAVYYCAKPPRGYNYGPFDYWGQGTLVTVSSASTKGPSVFPLAPCSRSTSESTAALGCLVKDYFPEPVTVSWNSGALTSGVHTFPAVLQSSGLYSLSSVVTVPSSSLGTKTYTCNVDHKPSNTKVDKRVESKYGPPCPPCPAPEFLGGPSVFLFPPKPKDTLMISRTPEVTCVVVDVSQEDPEVQFNWYVDGVEVHNAKTKPREEQFNSTYRVVSVLAVLHQDWLNGKEYKCKVSNKGLPSSIEKTISKAKGQPREPQVYTLPPSQEEMTKNQVSLTCLVKGFYPSDIAVAWESNGQPENNYKTTPPVLDSDGSFFLYSRLTVDKSRWQEGNVFSCSVMHEALHAHYTQKSLSLSLGK light: SYVLTQPPSVSVAPGQTARITCGGNNIGSKSVHWYQQKPGQAPVLVVYDDSDRPSGIPERFSGSNSGNTATLTISRVEAGDEADYYCQVWDSSSDHVVFGGGTKLTVLGQPKAAPSVTLFPPSSEELQANKATLVCLISDFYPGAVTVAWKADSSPVKAGVETTTPSKQSNNKYAASSYLSLTPEQWKSHRSYSCQVTHEGSTVEKTVAPTECS | no binding | no binding |
| Abs-258 (other, the paragraph that names the antibody is followed; also called CD80 IgV mutant H18W/A26C/A71E/L85D-sugemalimab fusion) heavy: VIHVTKEVKEVATLSCGWNVSVEELCQTRIYWQKEKKMVLTMMSGDMNIWPEYKNRTIFDITNNLSIVILELRPSDEGTYECVVDKYEKDAFKREHLAEVTLSVKADGGGGSGGGGSGGGGSGGGGSGEVQLLESGGGLVQPGGSLRLSCAASGFTFSSYAMSWVRQAPGKGLEWVSGISGSGGFTYYADSVKGRFTISRDNSKNTLYLQMNSLRAEDTAVYYCAKPPRGYNYGPFDYWGQGTLVTVSSASTKGPSVFPLAPCSRSTSESTAALGCLVKDYFPEPVTVSWNSGALTSGVHTFPAVLQSSGLYSLSSVVTVPSSSLGTKTYTCNVDHKPSNTKVDKRVESKYGPPCPPCPAPEFLGGPSVFLFPPKPKDTLMISRTPEVTCVVVDVSQEDPEVQFNWYVDGVEVHNAKTKPREEQFNSTYRVVSVLAVLHQDWLNGKEYKCKVSNKGLPSSIEKTISKAKGQPREPQVYTLPPSQEEMTKNQVSLTCLVKGFYPSDIAVAWESNGQPENNYKTTPPVLDSDGSFFLYSRLTVDKSRWQEGNVFSCSVMHEALHAHYTQKSLSLSLGK light: SYVLTQPPSVSVAPGQTARITCGGNNIGSKSVHWYQQKPGQAPVLVVYDDSDRPSGIPERFSGSNSGNTATLTISRVEAGDEADYYCQVWDSSSDHVVFGGGTKLTVLGQPKAAPSVTLFPPSSEELQANKATLVCLISDFYPGAVTVAWKADSSPVKAGVETTTPSKQSNNKYAASSYLSLTPEQWKSHRSYSCQVTHEGSTVEKTVAPTECS | no binding | no binding |
| Abs-261 (other, the paragraph that names the antibody is followed; also called CD80 IgV mutant A26C/A71E/L85D-sugemalimab fusion) heavy: VIHVTKEVKEVATLSCGHNVSVEELCQTRIYWQKEKKMVLTMMSGDMNIWPEYKNRTIFDITNNLSIVILELRPSDEGTYECVVDKYEKDAFKREHLAEVTLSVKADGGGGSGGGGSGGGGSGGGGSGEVQLLESGGGLVQPGGSLRLSCAASGFTFSSYAMSWVRQAPGKGLEWVSGISGSGGFTYYADSVKGRFTISRDNSKNTLYLQMNSLRAEDTAVYYCAKPPRGYNYGPFDYWGQGTLVTVSSASTKGPSVFPLAPCSRSTSESTAALGCLVKDYFPEPVTVSWNSGALTSGVHTFPAVLQSSGLYSLSSVVTVPSSSLGTKTYTCNVDHKPSNTKVDKRVESKYGPPCPPCPAPEFLGGPSVFLFPPKPKDTLMISRTPEVTCVVVDVSQEDPEVQFNWYVDGVEVHNAKTKPREEQFNSTYRVVSVLAVLHQDWLNGKEYKCKVSNKGLPSSIEKTISKAKGQPREPQVYTLPPSQEEMTKNQVSLTCLVKGFYPSDIAVAWESNGQPENNYKTTPPVLDSDGSFFLYSRLTVDKSRWQEGNVFSCSVMHEALHAHYTQKSLSLSLGK light: SYVLTQPPSVSVAPGQTARITCGGNNIGSKSVHWYQQKPGQAPVLVVYDDSDRPSGIPERFSGSNSGNTATLTISRVEAGDEADYYCQVWDSSSDHVVFGGGTKLTVLGQPKAAPSVTLFPPSSEELQANKATLVCLISDFYPGAVTVAWKADSSPVKAGVETTTPSKQSNNKYAASSYLSLTPEQWKSHRSYSCQVTHEGSTVEKTVAPTECS | no binding | no binding |
| Abs-259 (other, the paragraph that names the antibody is followed; also called CD80 IgV mutant A26M/A71E/L85N-sugemalimab fusion) heavy: VIHVTKEVKEVATLSCGHNVSVEELMQTRIYWQKEKKMVLTMMSGDMNIWPEYKNRTIFDITNNLSIVILELRPSDEGTYECVVNKYEKDAFKREHLAEVTLSVKADGGGGSGGGGSGGGGSGGGGSGEVQLLESGGGLVQPGGSLRLSCAASGFTFSSYAMSWVRQAPGKGLEWVSGISGSGGFTYYADSVKGRFTISRDNSKNTLYLQMNSLRAEDTAVYYCAKPPRGYNYGPFDYWGQGTLVTVSSASTKGPSVFPLAPCSRSTSESTAALGCLVKDYFPEPVTVSWNSGALTSGVHTFPAVLQSSGLYSLSSVVTVPSSSLGTKTYTCNVDHKPSNTKVDKRVESKYGPPCPPCPAPEFLGGPSVFLFPPKPKDTLMISRTPEVTCVVVDVSQEDPEVQFNWYVDGVEVHNAKTKPREEQFNSTYRVVSVLAVLHQDWLNGKEYKCKVSNKGLPSSIEKTISKAKGQPREPQVYTLPPSQEEMTKNQVSLTCLVKGFYPSDIAVAWESNGQPENNYKTTPPVLDSDGSFFLYSRLTVDKSRWQEGNVFSCSVMHEALHAHYTQKSLSLSLGK light: SYVLTQPPSVSVAPGQTARITCGGNNIGSKSVHWYQQKPGQAPVLVVYDDSDRPSGIPERFSGSNSGNTATLTISRVEAGDEADYYCQVWDSSSDHVVFGGGTKLTVLGQPKAAPSVTLFPPSSEELQANKATLVCLISDFYPGAVTVAWKADSSPVKAGVETTTPSKQSNNKYAASSYLSLTPEQWKSHRSYSCQVTHEGSTVEKTVAPTECS | no binding | no binding |
